According to patent US20040019188A1, “Targeting through integrins” (priority 2000, published 2004):

Target: α5β1 integrin (major fibronectin receptor) on HEp-2 cells (human), P08648
Sequence (P08648 42-1049, chain 1 of 2): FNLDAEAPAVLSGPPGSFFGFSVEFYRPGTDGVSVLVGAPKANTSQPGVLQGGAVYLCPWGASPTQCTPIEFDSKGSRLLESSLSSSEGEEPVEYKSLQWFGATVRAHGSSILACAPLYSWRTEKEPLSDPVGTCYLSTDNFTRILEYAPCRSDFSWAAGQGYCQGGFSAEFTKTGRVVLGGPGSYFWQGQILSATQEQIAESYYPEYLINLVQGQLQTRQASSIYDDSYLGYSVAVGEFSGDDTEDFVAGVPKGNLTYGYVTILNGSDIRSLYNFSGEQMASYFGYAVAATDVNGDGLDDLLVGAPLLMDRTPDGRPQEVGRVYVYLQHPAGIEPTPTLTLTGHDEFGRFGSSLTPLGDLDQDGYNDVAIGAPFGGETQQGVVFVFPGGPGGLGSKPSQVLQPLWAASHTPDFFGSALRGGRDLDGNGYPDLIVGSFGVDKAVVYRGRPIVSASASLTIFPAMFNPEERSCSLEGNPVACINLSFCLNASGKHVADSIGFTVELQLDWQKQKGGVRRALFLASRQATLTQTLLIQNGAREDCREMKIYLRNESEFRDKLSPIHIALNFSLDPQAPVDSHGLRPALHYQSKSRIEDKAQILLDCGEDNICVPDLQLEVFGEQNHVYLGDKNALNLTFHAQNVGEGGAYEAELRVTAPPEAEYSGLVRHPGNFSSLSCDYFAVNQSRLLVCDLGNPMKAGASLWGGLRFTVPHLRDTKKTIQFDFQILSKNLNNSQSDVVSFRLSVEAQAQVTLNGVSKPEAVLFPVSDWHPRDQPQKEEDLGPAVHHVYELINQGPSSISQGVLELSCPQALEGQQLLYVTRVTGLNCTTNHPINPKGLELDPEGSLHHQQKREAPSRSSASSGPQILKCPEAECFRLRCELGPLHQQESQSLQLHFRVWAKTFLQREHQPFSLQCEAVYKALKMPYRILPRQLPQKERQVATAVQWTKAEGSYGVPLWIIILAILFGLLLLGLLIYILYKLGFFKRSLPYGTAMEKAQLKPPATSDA
Sequence (P05556 21-798, chain 2 of 2, further chain): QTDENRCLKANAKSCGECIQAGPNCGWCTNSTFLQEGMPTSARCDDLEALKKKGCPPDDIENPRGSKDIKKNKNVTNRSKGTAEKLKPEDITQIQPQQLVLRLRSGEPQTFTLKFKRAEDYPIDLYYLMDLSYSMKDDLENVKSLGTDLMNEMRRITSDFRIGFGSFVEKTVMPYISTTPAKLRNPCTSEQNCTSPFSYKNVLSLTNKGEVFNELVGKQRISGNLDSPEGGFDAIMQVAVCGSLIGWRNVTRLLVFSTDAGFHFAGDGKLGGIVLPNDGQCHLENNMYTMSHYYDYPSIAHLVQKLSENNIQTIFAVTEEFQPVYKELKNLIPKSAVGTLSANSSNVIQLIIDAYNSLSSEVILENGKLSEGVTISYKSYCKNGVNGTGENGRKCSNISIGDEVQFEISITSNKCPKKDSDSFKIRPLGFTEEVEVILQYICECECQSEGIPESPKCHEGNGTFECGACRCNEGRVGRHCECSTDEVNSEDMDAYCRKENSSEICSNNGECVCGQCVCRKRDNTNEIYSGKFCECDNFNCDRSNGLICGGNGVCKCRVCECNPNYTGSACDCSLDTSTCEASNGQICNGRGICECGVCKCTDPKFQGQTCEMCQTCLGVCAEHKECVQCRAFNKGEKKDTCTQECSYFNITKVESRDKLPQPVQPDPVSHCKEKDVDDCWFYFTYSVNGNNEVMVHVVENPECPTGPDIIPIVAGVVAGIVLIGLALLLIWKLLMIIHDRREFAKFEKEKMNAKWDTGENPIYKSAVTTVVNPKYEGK

RGDS (modifications not checked) [RGDS peptide (Gibco)]
ID30: 170 µM
